Reference: PMC4509486, “Inside-out Ca^2+ signalling prompted by STIM1 conformational switch” (Nature Communications, 2015)

How the values were obtained:
[1] = biological target: the molecule itself; experiment: SEC-MALS; Superdex 200 10/300 GL; 500 μl of 10–100 μM protein; 20 mM Tris-HCl pH 7.3, 150 mM NaCl, 2 mM dithiothreitol, 0.6% N-lauroylsarcosine; 0.3 ml/min
[2] = biological target: the molecule itself; experiment: cross-linking; copper-phenanthroline (1 mM CuSO4/3 mM 1,10-phenanthroline) disulfide cross-linking of purified protein (1 mg/ml) in 20 mM HEPES pH 7.4, 150 mM NaCl, 1 mM TCEP, on ice 15 min; non-reducing SDS-PAGE; efficiency = dimer/(monomer + dimer)
[3] = biological target: the molecule itself; experiment: FRET or BRET; inter-subunit FRET between FITC- and TMR-labelled monocysteine TM-CC1 in PBS pH 7.3, 1% OG, 1 mM TCEP; excitation 475 nm
[4] = biological target: the molecule itself; experiment: SEC + native gel or EMSA; in vitro, with or without Ca^2+; detergents needed to keep the proteins soluble

B1: GB1-TM-CC1 (STIM1 residues 209–310), wild type (domain or fragment, UniProt Q13586 209-310, looked up)
chain: NHLKDFMLVVSIVIGVGGCWFAYIQNRYSKEHMKKMMKDLEGLHRAEQSLHDLQERLHKAQEEHRTVEVEKVHLEKKLRDEINLAKQEAQRLKELREGTENE
notes: STIM1 residues 209-310 (transmembrane domain and CC1); also called STIM1_(209–310); WT; source: E. coli BL21 (DE3), purified (Ni-NTA, gel filtration); not shown: GB1, N-terminal, kept
B1 was tested, and the “stoichiometry N” value [1] was 2.

B2: GB1-TM-CC1 monocysteine variant I220C on the C227W background (domain or fragment, UniProt Q13586 209-310, looked up)
chain: NHLKDFMLVVSCVIGVGGWWFAYIQNRYSKEHMKKMMKDLEGLHRAEQSLHDLQERLHKAQEEHRTVEVEKVHLEKKLRDEINLAKQEAQRLKELREGTENE
notes: STIM1 residues 209-310; also called I220C (C227W); source: E. coli BL21 (DE3), purified; not shown: GB1, N-terminal, kept
B2: binds [2].

B3: GB1-TM-CC1 monocysteine variant F229C on the C227S background (domain or fragment, UniProt Q13586 209-310, looked up)
chain: NHLKDFMLVVSIVIGVGGSWCAYIQNRYSKEHMKKMMKDLEGLHRAEQSLHDLQERLHKAQEEHRTVEVEKVHLEKKLRDEINLAKQEAQRLKELREGTENE
notes: STIM1 residues 209-310; also called F229C (C227S); source: E. coli BL21 (DE3), purified; not shown: GB1, N-terminal, kept
B3: binds [2].

B4: GB1-TM-CC1 monocysteine variant F229C on the C227W background (domain or fragment, UniProt Q13586 209-310, looked up)
chain: NHLKDFMLVVSIVIGVGGWWCAYIQNRYSKEHMKKMMKDLEGLHRAEQSLHDLQERLHKAQEEHRTVEVEKVHLEKKLRDEINLAKQEAQRLKELREGTENE
notes: STIM1 residues 209-310; also called F229C (C227W); source: E. coli BL21 (DE3), purified; not shown: GB1, N-terminal, kept
B4: binds [2].

B5: TM-CC1 monocysteine variant F214C on the C227W background, labelled with FITC or TMR (domain or fragment, UniProt Q13586 209-310, looked up)
chain: NHLKDCMLVVSIVIGVGGWWFAYIQNRYSKEHMKKMMKDLEGLHRAEQSLHDLQERLHKAQEEHRTVEVEKVHLEKKLRDEINLAKQEAQRLKELREGTENE
modifications: FITC-maleimide or TMR-maleimide on the single cysteine (F214C)
notes: STIM1 residues 209-310 (TM-CC1); also called F214C (C227W TM-CC1); source: E. coli BL21 (DE3), purified, dye-labelled
B5: binds [3].

B6: TM-CC1 monocysteine variant N234C on the C227W background, labelled with FITC or TMR (domain or fragment, UniProt Q13586 209-310, looked up)
chain: NHLKDFMLVVSIVIGVGGWWFAYIQCRYSKEHMKKMMKDLEGLHRAEQSLHDLQERLHKAQEEHRTVEVEKVHLEKKLRDEINLAKQEAQRLKELREGTENE
modifications: FITC-maleimide or TMR-maleimide on the single cysteine (N234C)
notes: STIM1 residues 209-310 (TM-CC1); also called N234C (C227W TM-CC1); source: E. coli BL21 (DE3), purified, dye-labelled
B6: binds [3].

B7: GB1-TM-CC1 (STIM1 residues 209–310) C227W (domain or fragment, UniProt Q13586 209-310, looked up)
chain: NHLKDFMLVVSIVIGVGGWWFAYIQNRYSKEHMKKMMKDLEGLHRAEQSLHDLQERLHKAQEEHRTVEVEKVHLEKKLRDEINLAKQEAQRLKELREGTENE
notes: STIM1 residues 209-310; also called TM-CC1-C227W; source: E. coli BL21 (DE3), purified (Ni-NTA, gel filtration); not shown: GB1, N-terminal, kept
For B7, the “stoichiometry N” value [1] was 2.

B8: GB1-TM-CC1 monocysteine variant I220C on the C227S background (domain or fragment, UniProt Q13586 209-310, looked up)
chain: NHLKDFMLVVSCVIGVGGSWFAYIQNRYSKEHMKKMMKDLEGLHRAEQSLHDLQERLHKAQEEHRTVEVEKVHLEKKLRDEINLAKQEAQRLKELREGTENE
notes: STIM1 residues 209-310; also called I220C (C227S); source: E. coli BL21 (DE3), purified; not shown: GB1, N-terminal, kept
B8: binds [2].

B9: STIM1 1–342 (characterized in vitro) (domain or fragment, UniProt Q13586 23-342, looked up)
chain: LSHSHSEKATGTSSGANSEESTAAEFCRIDKPLCHSEDEKLSFEAVRNIHKLMDDDANGDVDVEESDEFLREDLNYHDPTVKHSTFHGEDKLISVEDLWKAWKSSEVYNWTVDEVVQWLITYVELPQYEETFRKLQLSGHAMPRLAVTNTTMTGTVLKMTDRSHRQKLQLKALDTVLFGPPLLTRHNHLKDFMLVVSIVIGVGGCWFAYIQNRYSKEHMKKMMKDLEGLHRAEQSLHDLQERLHKAQEEHRTVEVEKVHLEKKLRDEINLAKQEAQRLKELREGTENERSRQKYAEEELEQVREALRKAEKELESHSSWY
notes: signal peptide in the construct; it may be the CFP fusion m18
In the case of B9, the “stoichiometry N” value [4] is reported as 2.
